Reference: patent US10253076B2, “Peptides and combination of peptides for use in immunotherapy against ovarian cancer and other cancers” (immatics biotechnologies GmbH, priority 2015, dated 2019)

Target: HLA-A*02:01 (Homo sapiens, UniProt P04439, D140Y/D185E/D98H/E176V/E277Q/G131W/G231S/I119V/I121R/I166T/I218V/L300P/L318F/N151K/N90K/P208A/P217A/Q86G/Q94H/R138H/R169H/T345S)
Assay: MHC binding assay (UV-ligand exchange, beta2m ELISA, peptide exchange yield)
Details: binding of HLA-class I restricted peptides to HLA-A*02:01, ranged by peptide exchange yield (UV-ligand exchange, β2m ELISA)
Method in brief: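 Peptide–HLA-A*02:01 complexes made by UV-mediated exchange of a photocleavable peptide with the test peptide. Exchange products diluted 100-fold on streptavidin-coated plates, 1 h at 37°C, then HRP anti-β2m 1 h at 37°C; TMB read at 450 nm to give exchange yield.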

| Substance | Peptide exchange |
| --- | --- |
| 376 (AMFESSQNVLL; listed as Homo sapiens) [compound 376] | ″++″ (≥20% = ++) |
| 64 (YAAPGGLIGV; listed as Homo sapiens) [compound 64] | ″++″ (≥20% = ++) |
| 446 (QLIPALAKV; listed as Homo sapiens) [compound 446] | ″+++″ (≥50% = +++) |
| 18 (YLVAKLVEV; listed as Homo sapiens) [compound 18] | ″++″ (≥20% = ++) |
| 362 (TLYGLSVLL; listed as Homo sapiens) [compound 362] | ″+++″ (≥50% = +++) |
| 369 (GLFPEHLIDV; listed as Homo sapiens) [compound 369] | ″+++″ (≥50% = +++) |
| 284 (ILLSQTTGV; listed as Homo sapiens) [compound 284] | ″+++″ (≥50% = +++) |
| 39 (SVAPNLPAV; listed as Homo sapiens) [compound 39] | ″+++″ (≥50% = +++) |
| 93 (LLQAIKLYL; listed as Homo sapiens) [compound 93] | ″++″ (≥20% = ++) |
| 94 (YLIDIKTIAI; listed as Homo sapiens) [compound 94] | ″++″ (≥20% = ++) |
| 81 (FLFSQLQYL; listed as Homo sapiens) [compound 81] | ″++″ (≥20% = ++) |
| 235 (YLNDLHEVLL; listed as Homo sapiens) [compound 235] | ″++++″ (≥75% = ++++) |
| 377 (FLLDSSASV; listed as Homo sapiens) [compound 377] | ″++″ (≥20% = ++) |
| 544 (LLWDVPAPSL; listed as Homo sapiens) [compound 544] | ″+++″ (≥50% = +++) |
| 513 (SLWPSPEQL; listed as Homo sapiens) [compound 513] | ″++″ (≥20% = ++) |
| 412 (YLDDLNEGVYI; listed as Homo sapiens) [compound 412] | ″++″ (≥20% = ++) |
| 336 (ILLTAIVQV; listed as Homo sapiens) [compound 336] | ″+++″ (≥50% = +++) |
| 385 (SLLEQGLVEA; listed as Homo sapiens) [compound 385] | ″++″ (≥20% = ++) |
| 580 (LLMENAERV; listed as Homo sapiens) [compound 580] | ″++″ (≥20% = ++) |
| 160 (FLFDEEIEQI; listed as Homo sapiens) [compound 160] | ″+++″ (≥50% = +++) |

| Substance | Peptide exchange |
| --- | --- |
| 189 (ALQRKLPYV; listed as Homo sapiens) [compound 189] | ″+++″ (≥50% = +++) |
| 343 (SLLEVNEESTV; listed as Homo sapiens) [compound 343] | ″+++″ (≥50% = +++) |
| 274 (SLLFSLFEA; listed as Homo sapiens) [compound 274] | ″++″ (≥20% = ++) |
| 217 (ALIHPVSTV; listed as Homo sapiens) [compound 217] | ″++″ (≥20% = ++) |
| 261 (YVLEFLEEI; listed as Homo sapiens) [compound 261] | ″++″ (≥20% = ++) |
| 139 (SVMEVNSGIYRV; listed as Homo sapiens) [compound 139] | ″+++″ (≥50% = +++) |
| 198 (KTINKVPTV; listed as Homo sapiens) [compound 198] | ″+++″ (≥50% = +++) |
| 71 (GILARIASV; listed as Homo sapiens) [compound 71] | ″+++″ (≥50% = +++) |
| 7 (SLVGLLLYL; listed as Homo sapiens) [compound 7] | ″++++″ (≥75% = ++++) |
| 407 (YLMDLINFL; listed as Homo sapiens) [compound 407] | ″+++″ (≥50% = +++) |
| 566 (VIADGGIQNV; listed as Homo sapiens) [compound 566] | ″++″ (≥20% = ++) |
| 468 (YLRSVGDGETV; listed as Homo sapiens) [compound 468] | ″+++″ (≥50% = +++) |
| 41 (SLMPHIPGL; listed as Homo sapiens) [compound 41] | ″+++″ (≥50% = +++) |
| 87 (ALPEAPAPLLPHIT; listed as Homo sapiens) [compound 87] | ″++″ (≥20% = ++) |
| 46 (ILTEENIHL; listed as Homo sapiens) [compound 46] | ″+++″ (≥50% = +++) |
| 521 (MLLTKLPTI; listed as Homo sapiens) [compound 521] | ″+++″ (≥50% = +++) |
| 329 (FLVTLNNVEV; listed as Homo sapiens) [compound 329] | ″++++″ (≥75% = ++++) |
| 330 (QLALKVEGV; listed as Homo sapiens) [compound 330] | ″+++″ (≥50% = +++) |
| 551 (KLYESLLPFA; listed as Homo sapiens) [compound 551] | ″+++″ (≥50% = +++) |
| 484 (SLIEKVTQL; listed as Homo sapiens) [compound 484] | ″+++″ (≥50% = +++) |

| Substance | Peptide exchange |
| --- | --- |
| 218 (SALEELVNV; listed as Homo sapiens) [compound 218] | ″++″ (≥20% = ++) |
| 120 (ALLGIPLTLV; listed as Homo sapiens) [compound 120] | ″+++″ (≥50% = +++) |
| 387 (ALFQATAEV; listed as Homo sapiens) [compound 387] | ″++++″ (≥75% = ++++) |
| 467 (FLAKDFNFL; listed as Homo sapiens) [compound 467] | ″+++″ (≥50% = +++) |
| 397 (YLFGERLLEC; listed as Homo sapiens) [compound 397] | ″+++″ (≥50% = +++) |
| 144 (YIMEPSIFNTL; listed as Homo sapiens) [compound 144] | ″+++″ (≥50% = +++) |
| 275 (YLVYILNEL; listed as Homo sapiens) [compound 275] | ″++″ (≥20% = ++) |
| 465 (QLCDLNAEL; listed as Homo sapiens) [compound 465] | ″+++″ (≥50% = +++) |
| 215 (QLINHLHAV; listed as Homo sapiens) [compound 215] | ″+++″ (≥50% = +++) |
| 458 (SLIDKLYNI; listed as Homo sapiens) [compound 458] | ″++″ (≥20% = ++) |
| 295 (VLDRESPNV; listed as Homo sapiens) [compound 295] | ″+++″ (≥50% = +++) |
| 68 (SLMELPRGLFL; listed as Homo sapiens) [compound 68] | ″++++″ (≥75% = ++++) |
| 307 (ALPVSLPQI; listed as Homo sapiens) [compound 307] | ″+++″ (≥50% = +++) |
| 263 (LLVSNLDFGV; listed as Homo sapiens) [compound 263] | ″+++″ (≥50% = +++) |
| 514 (ILVDWLVQV; listed as Homo sapiens) [compound 514] | ″+++″ (≥50% = +++) |
| 409 (LLDAMNYHL; listed as Homo sapiens) [compound 409] | ″++″ (≥20% = ++) |
| 246 (LLWEVVSQL; listed as Homo sapiens) [compound 246] | ″+++″ (≥50% = +++) |
| 252 (LLIGTDVSL; listed as Homo sapiens) [compound 252] | ″+++″ (≥50% = +++) |
| 306 (ALVNVQIPL; listed as Homo sapiens) [compound 306] | ″+++″ (≥50% = +++) |
